Measured values from patent publication US20140363428A1 (Chugai, published 2014).
Residue numbers refer to the chain shown, from its start.

B1: IgG1-F1284 (antibody)
heavy: QVQLQESGPGLVKPSETLSLTCAVSGHSISHDHAWSWVRQPPGEGLEWIGFISYSGITNYNPSLQGRVTISRDNSKNTLYLQMNSLRAEDTAVYYCARSLARTTAMDYWGEGTLVTVSSASTKGPSVFPLAPSSKSTSGGTAALGCLVKDYFPEPVTVSWNSGALTSGVHTFPAVLQSSGLYSLSSVVTVPSSSLGTQTYICNVNHKPSNTKVDKKVEPKSCDKTHTCPPCPAPELRGGPKVFLFPPKPKDTLYISRNPEVTCVVVDVSHEDPEVKFNWYVDGVEVHNAKTKPREEQYNSTYRVVSVLTVLHQDWLNGKEYKCKVSNKALPAPIEKTISKAKGQPREPQVYTLPPSRDELTKNQVSLTCLVKGFYPSDIAVEWESNGQPENNYKTTPPVLDSDGSFFLYSKLTVDKSRWQQGNVFSCSVMHEALDYHVTKKDLSLSP
light: not shown
notes: EU numbering; copies: 2 + 2
B2: IgG1-F1293 (antibody)
heavy: B1 heavy with N258E, D435H, V438Y, K440R, D442E
light: not shown
notes: EU numbering; copies: 2 + 2
B3: IgG1-F1310 (antibody)
heavy: B1 heavy with N258T, D435H, K440L, D442L
light: not shown
notes: EU numbering; copies: 2 + 2
B4: IgG1-F1344 (antibody)
heavy: B1 heavy with N258T, D435H, V438T, D442E
light: not shown
notes: EU numbering; copies: 2 + 2
B5: IgG1-F1320 (antibody)
heavy: B1 heavy with S256T, N258T, D435H, K440R
light: not shown
notes: EU numbering; copies: 2 + 2
B6: IgG1-F1338 (antibody)
heavy: B1 heavy with N258E, D442E
light: not shown
notes: EU numbering; copies: 2 + 2
B7: IgG1-F1323 (antibody)
heavy: B1 heavy with S256T, N258T, D442E
light: not shown
notes: EU numbering; copies: 2 + 2
B8: IgG1-F1335 (antibody)
heavy: B1 heavy with G238R, S256T, N258T, D435H
light: not shown
notes: EU numbering; copies: 2 + 2
B9: IgG1-F1295 (antibody)
heavy: B1 heavy with N258E, D435H, V438F, K440R, D442E
light: not shown
notes: EU numbering; copies: 2 + 2
B10: IgG1-F1317 (antibody)
heavy: B1 heavy with R237L, N258T, P331K, D435H, K440Q, D442S
light: not shown
notes: EU numbering; copies: 2 + 2
B11: IgG1-F1351 (antibody)
heavy: B1 heavy with N258T, D435H, V438F, K440R, D442E
light: not shown
notes: EU numbering; copies: 2 + 2
B12: IgG1-F1319 (antibody)
heavy: B1 heavy with R237L, K241S, N258T, L330Y, D435H, V438Y, K440Q, D442S
light: not shown
notes: EU numbering; copies: 2 + 2
B13: IgG1-F1314 (antibody)
heavy: B1 heavy with N258T, K440L, D442L
light: not shown
notes: EU numbering; copies: 2 + 2
B14: IgG1-F1342 (antibody)
heavy: B1 heavy with N258E, D435H, V438T, D442E
light: not shown
notes: EU numbering; copies: 2 + 2
B15: IgG1-F1348 (antibody)
heavy: B1 heavy with G238R, S256T, N258E, D435H, D442E
light: not shown
notes: EU numbering; copies: 2 + 2
B16: IgG1-F1296 (antibody)
heavy: B1 heavy with N258E, V438Y, K440R, D442E
light: not shown
notes: EU numbering; copies: 2 + 2
B17: IgG1-F1309 (antibody)
heavy: B1 heavy with N258T, D435H, K440A, D442A
light: not shown
notes: EU numbering; copies: 2 + 2
B18: IgG1-F1350 (antibody)
heavy: B1 heavy with N258T, D435H, V438F, D442E
light: not shown
notes: EU numbering; copies: 2 + 2
B19: IgG1-F1346 (antibody)
heavy: B1 heavy with G238R, S256T, N258T, D435H, D442E
light: not shown
notes: EU numbering; copies: 2 + 2
B20: IgG1-F1307 (antibody)
heavy: B1 heavy with N258T, V424A, S426A, D435H, K440Q, D442S
light: not shown
notes: EU numbering; copies: 2 + 2
B21: IgG1-F1337 (antibody)
heavy: B1 heavy with N258E, D435H, D442E
light: not shown
notes: EU numbering; copies: 2 + 2
B22: IgG1-F1308 (antibody)
heavy: B1 heavy with N258T, V424L, S426L, D435H, K440Q, D442S
light: not shown
notes: EU numbering; copies: 2 + 2
B23: IgG1-F1339 (antibody)
heavy: B1 heavy with S256T, N258E, V438T, D442E
light: not shown
notes: EU numbering; copies: 2 + 2
B24: IgG1-F1312 (antibody)
heavy: B1 heavy with N258T, V424L, S426L, K440Q, D442S
light: not shown
notes: EU numbering; copies: 2 + 2
B25: IgG1-F1328 (antibody)
heavy: B1 heavy with G238R, N258T, D435H, K440R, D442E
light: not shown
notes: EU numbering; copies: 2 + 2
B26: IgG1-F1324 (antibody)
heavy: B1 heavy with L236A, R237A, K241S, N258T, D435H, K440Q, D442S
light: not shown
notes: EU numbering; copies: 2 + 2
B27: IgG1-F1321 (antibody)
heavy: B1 heavy with S256T, N258T, D435H, D442E
light: not shown
notes: EU numbering; copies: 2 + 2
B28: IgG1-F1302 (antibody)
heavy: B1 heavy with N258E, V438Y
light: not shown
notes: EU numbering; copies: 2 + 2
B29: IgG1-F1285 (antibody)
heavy: B1 heavy with S256T, N258T, D435H
light: not shown
notes: EU numbering; copies: 2 + 2
B30: IgG1-F1316 (antibody)
heavy: B1 heavy with R237L, G239R, N258T, D435H, K440Q, D442S
light: not shown
notes: EU numbering; copies: 2 + 2
B31: IgG1-F1313 (antibody)
heavy: B1 heavy with N258T, K440A, D442A
light: not shown
notes: EU numbering; copies: 2 + 2
B32: IgG1-F1286 (antibody)
heavy: B1 heavy with S256T, N258T, K440R, D442E
light: not shown
notes: EU numbering; copies: 2 + 2
B33: IgG1-F1288 (antibody)
heavy: B1 heavy with N258E, D435H
light: not shown
notes: EU numbering; copies: 2 + 2
B34: IgG1-F1311 (antibody)
heavy: B1 heavy with N258T, V424A, S426A, K440Q, D442S
light: not shown
notes: EU numbering; copies: 2 + 2
B35: IgG1-F1341 (antibody)
heavy: B1 heavy with S256T, N258T, D435H, V438T, D442E
light: not shown
notes: EU numbering; copies: 2 + 2
B36: IgG1-F1325 (antibody)
heavy: B1 heavy with L236A, R237A, K241S, N258T, N299A, D435H, K440Q, D442S
light: not shown
notes: EU numbering; copies: 2 + 2
B37: IgG1-F1318 (antibody)
heavy: B1 heavy with R237L, N258T, P331R, D435H, K440Q, D442S
light: not shown
notes: EU numbering; copies: 2 + 2
B38: IgG1-F1292 (antibody)
heavy: B1 heavy with Y254M, N258T, Y436W, K440R, D442E
light: not shown
notes: EU numbering; copies: 2 + 2
B39: IgG1-F1334 (antibody)
heavy: B1 heavy with G238R, N258T, D435H
light: not shown
notes: EU numbering; copies: 2 + 2
B40: IgG1-F1329 (antibody)
heavy: B1 heavy with G238R, S256T, N258T, D435H, K440R, D442E
light: not shown
notes: EU numbering; copies: 2 + 2
B41: IgG1-F1289 (antibody)
heavy: B1 heavy with N258E, K440R, D442E
light: not shown
notes: EU numbering; copies: 2 + 2
B42: IgG1-F1345 (antibody)
heavy: B1 heavy with G238R, N258T, D435H, D442E
light: not shown
notes: EU numbering; copies: 2 + 2
B43: IgG1-F1333 (antibody)
heavy: B1 heavy with G238R, N258T, D435H, K440Q, D442S
light: not shown
notes: EU numbering; copies: 2 + 2
B44: IgG1-F1336 (antibody)
heavy: B1 heavy with G238R, N258E, D435H
light: not shown
notes: EU numbering; copies: 2 + 2
B45: IgG1-F1352 (antibody)
heavy: B1 heavy with N258T, V438T, D442E
light: not shown
notes: EU numbering; copies: 2 + 2
B46: IgG1-F1340 (antibody)
heavy: B1 heavy with S256T, N258E, D435H, D442E
light: not shown
notes: EU numbering; copies: 2 + 2
B47: IgG1-F1347 (antibody)
heavy: B1 heavy with G238R, N258E, D435H, D442E
light: not shown
notes: EU numbering; copies: 2 + 2
B48: IgG1-F1331 (antibody)
heavy: B1 heavy with G238R, S256T, N258E, D435H, K440R, D442E
light: not shown
notes: EU numbering; copies: 2 + 2
B49: IgG1-F1349 (antibody)
heavy: B1 heavy with N258T, D435H, V438T, K440R, D442E
light: not shown
notes: EU numbering; copies: 2 + 2
B50: IgG1-F1298 (antibody)
heavy: B1 heavy with N258E, V438F, K440R, D442E
light: not shown
notes: EU numbering; copies: 2 + 2
B51: IgG1-F1343 (antibody)
heavy: B1 heavy with S256T, N258E, D435H, V438T, D442E
light: not shown
notes: EU numbering; copies: 2 + 2
B52: IgG1-F1330 (antibody)
heavy: B1 heavy with G238R, N258E, D435H, K440R, D442E
light: not shown
notes: EU numbering; copies: 2 + 2
B53: IgG1-F1304 (antibody)
heavy: B1 heavy with N258E, V438F
light: not shown
notes: EU numbering; copies: 2 + 2
B54: IgG1-F1305 (antibody)
heavy: B1 heavy with N258T, K440R
light: not shown
notes: EU numbering; copies: 2 + 2
B55: IgG1-F1300 (antibody)
heavy: B1 heavy with N258E, D435H, V438T
light: not shown
notes: EU numbering; copies: 2 + 2
B56: IgG1-F1290 (antibody)
heavy: B1 heavy with N258E
light: not shown
notes: EU numbering; copies: 2 + 2
B57: IgG1-F1306 (antibody)
heavy: B1 heavy with N258T, D442E
light: not shown
notes: EU numbering; copies: 2 + 2
B58: IgG1-F1291 (antibody)
heavy: B1 heavy with N258T, K440Q, D442S
light: not shown
notes: EU numbering; copies: 2 + 2
B59: IgG1-F1315 (antibody)
heavy: B1 heavy with R237L, G239K, N258T, D435H, K440Q, D442S
light: not shown
notes: EU numbering; copies: 2 + 2

biological target: T1, soluble human FcRn (human, UniProt P55899 24-297; P61769 21-119); test: SPR (Biacore T100), antibody captured by protein L, hFcRn as analyte, pH 7.0, 25 C;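 also: KD calculated from fitted association and dissociation rate constants of the sensorgrams, protein L amine-coupled to the sensor chip, sodium phosphate running buffer with NaCl and Tween20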
T1 construct: Heterodimer of FcRn alpha chain and beta2-microglobulin; also called hFcRn
Method: An appropriate amount of protein L (ACTIGEN) was immobilized onto Sensor chip CM4 (GE Healthcare) by the amino coupling method, and the chip was allowed to capture an antibody of interest. Then, diluted FcRn solutions and running buffer (as a reference solution) were injected to allow human FcRn to interact with the antibody captured on the sensor chip. The running buffer used comprised 50 mmol/l sodium phosphate, 150 mmol/l NaCl, and 0.05% (w/v) Tween20 (pH 7.0). FcRn was diluted using each buffer. The chip was regenerated using 10 mmol/l glycine-HCl (pH 1.5). Assays were carried out exclusively at 25 degrees C. The association rate constant ka (1/Ms) and dissociation rate constant kd (1/s), both of which are kinetic parameters, were calculated based on the sensorgrams obtained in the assays, and KD (M) of each antibody for human FcRn was determined from these values. Each parameter was calculated using Biacore T100 Evaluation Software (GE Healthcare).

| Kd [nM] | Binder |
| --- | --- |
| 110 | B1 |
| 160 | B2 |
| 230 | B3 |
| 400 | B4 |
| 120 | B5 |
| 100 | B6 |
| 150 | B7 |
| 88 | B8 |
| 98 | B9 |
| 140 | B10 |
| 160 | B11 |
| 270 | B12 |
| 230 | B13 |
| 250 | B14 |
| 55 | B15 |
| 230 | B16 |
| 130 | B17 |
| 120 | B18 |
| 86 | B19 |
| 140 | B20 |

| Kd [nM] | Binder |
| --- | --- |
| 74 | B21 |
| 210 | B22 |
| 250 | B23 |
| 180 | B24 |
| 150 | B25 |
| 130 | B26 |
| 100 | B27 |
| 220 | B28 |
| 94 | B29 |
| 150 | B30 |
| 180 | B31 |
| 160 | B32 |
| 79 | B33 |
| 170 | B34 |
| 320 | B35 |
| 210 | B36 |
| 140 | B37 |
| 420 | B38 |
| 100 | B39 |
| 130 | B40 |

| Kd [nM] | Binder |
| --- | --- |
| 130 | B41 |
| 100 | B42 |
| 120 | B43 |
| 72 | B44 |
| 390 | B45 |
| 56 | B46 |
| 71 | B47 |
| 77 | B48 |
| 340 | B49 |
| 150 | B50 |
| 200 | B51 |
| 100 | B52 |
| 120 | B53 |
| 200 | B54 |
| 160 | B55 |
| 110 | B56 |
| 190 | B57 |
| 150 | B58 |
| 150 | B59 |
